From patent publication US20250049896A1 (Regeneron, published 2025) come the findings set out here.

First the molecules themselves.
B1: 31863B anti-human TfR IgG1 monoclonal antibody (antibody, V domains shown)
VH: EVQLVESGGGLVQPGGSLRLSCAASGFTFNSYAMTWVRQAPGKGLEWVSFIGGSTGNTYYAGSVKGRFTISSDNSKKTLYLQMNSLRAEDTAVYYCAKGGAARRMEYFQHWGQGTLVTVSS
VL: DIQMTQSPSSLSASIGDRVTITCRASQGISNYLAWYQQKPGKVPKLLIYAASTLQSGVPSRFSGSGSGTDFTLTISSLQPEDVATYYCQNHNSVPLTFGGGTKVEIKR
notes: Tested as bivalent IgG1 from CHO primary supernatant
B2: 12841B (antibody, human IgG1, kappa, V domains shown)
VH: EVQLVESGGGLVQPGGSLRLSCAASGFTFSNYWMNWVRQAPGKGLEWVANIKEDGGKKLYVDSVKGRFTISRDNAKNSLFLQMNSLRAEDTAVYYCAREDTTLVVDYYYYGMDVWGQGTTVTVSS
VL: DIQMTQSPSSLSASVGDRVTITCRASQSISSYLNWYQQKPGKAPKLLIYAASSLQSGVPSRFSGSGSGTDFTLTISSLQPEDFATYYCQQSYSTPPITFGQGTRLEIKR
notes: Tested as bivalent human IgG1 from CHO primary supernatant; also called H1H12841B; REGN17511
B3: 12845B (antibody, human IgG1, kappa, V domains shown)
VH: EVQLVESGGGLVQPGGSLRLSCAASGFTVSNYEMNWVRQAPGKGLEWVSYISSSTSNIYYADSVKGRFTISRDNAENSLYLQMNSLRVEDTAVYYCVRDGIVVVPVGRGYYYYGLDVWGQGTTVTVSS
VL: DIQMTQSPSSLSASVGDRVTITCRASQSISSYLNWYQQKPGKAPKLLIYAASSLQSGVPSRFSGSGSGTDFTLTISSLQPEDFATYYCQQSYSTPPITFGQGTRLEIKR
notes: Tested as bivalent human IgG1 from CHO primary supernatant; also called H1H12845B; REGN17513
B4: 12834B (antibody, human IgG1, kappa, V domains shown)
VH: QVQLVQSGAEVKKPGASVKVSCKASGYTFTSYGISWVRQAPGQGLEWMGWISVYHGNTNYAQKFQGRVTMTTDTSTSTAYMELRSLRSDDTAVYYCAREGYYDFWSGYYPFDYWGQGTLVTVSS
VL: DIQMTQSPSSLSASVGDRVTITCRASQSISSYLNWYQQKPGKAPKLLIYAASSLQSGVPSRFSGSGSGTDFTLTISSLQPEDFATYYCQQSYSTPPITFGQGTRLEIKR
notes: Tested as bivalent human IgG1 from CHO primary supernatant
B5: 69307 (antibody, human IgG1, kappa, V domains shown)
VH: EVQLVESGGGLVQPGGSLRLSCTASGFTFSNYWMTWVRQAPGKGLEWVANIKEDGSEKEYVDSVKGRFTISRDNAKNSLYLQMNSLRGEDTAVYYCARDGEQLVDYYYYYVMDVWGQGTTVTVSS
VL: DIQMTQSPSSVSASVGDRVTITCRASQGISSWLAWYQQKPGKAPKLLIYAASSLQSGVPSRFSGSGSGTDFTLTISSLQPEDFATYYCQKADSLPYAFGQGTKLEIKR
notes: as for B4
B6: 12812B (antibody, human IgG1, kappa, V domains shown)
VH: QVQLVQSGAEVKKPGSSVRVSCKASRGTFSSYAISWVRQAPGQGLEWMGGIIPIFGTANYAQKFLARVTITADESTSTAYMELSSLRSEDTAVYYCAREKGWNYFDYWGQGTLVTVSS
VL: B5 VL with S9P, K90Q, D92N, L94F, Y96R, A97T, L104V
notes: as for B4
B7: 69329 (antibody, human IgG1, kappa, V domains shown)
VH: B5 VH with T23A, E59D
VL: B5 VL with D92N, L94F, A97T
notes: as for B4
B8: 69326 (antibody, human IgG1, kappa, V domains shown)
VH: EVQLVESGGGLVQPGGSLRLSCAVSGFIFSSYEMNWVRQAPGKGLEWVSYISSSGSTIFYADSVKGRFTISRDNAKNSLYLQMNSLRAEDTAVYYCVSGVVLFDVWGQGTMVTVSS
VL: EIVMTQSPATLSVSPGERATLSCRASQSVSSNFAWYQQKPGQAPRLLIYSASSRATGIPVRFSGSGSGTEFTLTISSLQSEDFAVYYCQQYNIWPRTFGQGTKVEIKR
notes: as for B4
B9: 12839B (antibody, human IgG1, kappa, V domains shown)
VH: QVQLVESGGGVVQPGRSLRLSCAASGFPFSNYVMYWVRQAPGKGLEWVALIFFDGKKNYHADSVKGRFTITRDNSKNMLYLQMNSLRPEDAAVYYCAKIHCPNGVCYKGYYGMDVWGQGTTVTVSS
VL: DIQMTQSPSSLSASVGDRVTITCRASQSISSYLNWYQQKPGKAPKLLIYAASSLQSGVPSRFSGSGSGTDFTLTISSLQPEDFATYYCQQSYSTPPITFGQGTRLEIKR
notes: Tested as bivalent human IgG1 from CHO primary supernatant; also called H1H12839B; REGN17510
B10: 69348 Fab (Fab, V domains shown)
VH: QVQLVESGGGVVQPGRSLRLSCAASGFTFTTYGMHWVRQAPGKGLEWVAVIWYDGSNKYYGDSVKGRFTISRDNSKNTLYLQMNSLRVDDTAVYYCTRTHGYTRSSDGFDYWGQGTLVTVSS
VL: DIQMTQSPSSLSASVGDRVTITCRASQSIRNVLGWFQQKPGKAPQRLIYAASSLQSGVPSRFSGSGSGTEFTLTISSLQPEDFATYYCLQHNFYPLTFGGGTKVEIKR
notes: CHO supernatant
B11: 69348 scFv (VH-VK) (scFv)
chain: QVQLVESGGGVVQPGRSLRLSCAASGFTFTTYGMHWVRQAPGKGLEWVAVIWYDGSNKYYGDSVKGRFTISRDNSKNTLYLQMNSLRVDDTAVYYCTRTHGYTRSSDGFDYWGQGTLVTVSSDIQMTQSPSSLSASVGDRVTITCRASQSIRNVLGWFQQKPGKAPQRLIYAASSLQSGVPSRFSGSGSGTEFTLTISSLQPEDFATYYCLQHNFYPLTFGGGTKVEIK
B12: 69348 scFv (VK-VH) (scFv)
scFv: DIQMTQSPSSLSASVGDRVTITCRASQSIRNVLGWFQQKPGKAPQRLIYAASSLQSGVPSRFSGSGSGTEFTLTISSLQPEDFATYYCLQHNFYPLTFGGGTKVEIKGGGGSGGGGSGGGGSQVQLVESGGGVVQPGRSLRLSCAASGFTFTTYGMHWVRQAPGKGLEWVAVIWYDGSNKYYGDSVKGRFTISRDNSKNTLYLQMNSLRVDDTAVYYCTRTHGYTRSSDGFDYWGQGTLVTVSS
notes: CHO supernatant; Vk-3xG4S-Vh

Where a chain is given by its changes, count along the chain named.

T4 sequence (P02786 other isoform, or with tags, fused parts or gaps): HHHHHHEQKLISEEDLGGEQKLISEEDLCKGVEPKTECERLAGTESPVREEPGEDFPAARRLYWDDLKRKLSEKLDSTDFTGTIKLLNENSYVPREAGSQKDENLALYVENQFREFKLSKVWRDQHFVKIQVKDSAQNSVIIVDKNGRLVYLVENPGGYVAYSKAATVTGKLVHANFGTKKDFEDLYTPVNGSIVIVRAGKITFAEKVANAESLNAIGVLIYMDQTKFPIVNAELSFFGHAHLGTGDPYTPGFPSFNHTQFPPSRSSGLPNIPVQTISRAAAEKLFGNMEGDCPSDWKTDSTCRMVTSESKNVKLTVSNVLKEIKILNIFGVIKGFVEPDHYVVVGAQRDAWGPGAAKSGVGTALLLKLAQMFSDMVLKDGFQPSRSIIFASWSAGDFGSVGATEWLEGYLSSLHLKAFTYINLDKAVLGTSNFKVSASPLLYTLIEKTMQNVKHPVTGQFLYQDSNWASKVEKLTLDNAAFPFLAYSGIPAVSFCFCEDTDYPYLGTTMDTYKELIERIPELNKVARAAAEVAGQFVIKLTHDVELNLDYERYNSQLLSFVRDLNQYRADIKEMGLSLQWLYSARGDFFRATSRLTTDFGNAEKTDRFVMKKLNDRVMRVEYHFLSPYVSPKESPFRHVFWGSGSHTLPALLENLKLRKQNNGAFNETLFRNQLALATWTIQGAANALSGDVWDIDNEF

The first test deals with T1, REGN2431 (hmm.hTfRC); monomeric human Tfrc ectodomain, amino acids C89-F760, with N-terminal … (human, UniProt P02786 89-760).
T1 construct: also called hTfR-mmh; hTFR-mmh
T1 sequence (P02786 other isoform, or with tags, fused parts or gaps): as above
The test can be described thus: SPR (Biacore), mAb from CHO supernatant captured on anti-human Fc, 100 nM hTfR-mmh injected, 25 C. As for the experimental part:
(§1) Biacore binding kinetics assays were conducted for the interaction of 32 anti-human TfR IgG1 monoclonal antibodies from CHO supernatants with TfR reagents at 25° C.
(§2) Equilibrium dissociation constants (KD) for the interaction of anti-TfR monoclonal antibodies with human and fascicularis monkey TfR ecto domain recombinant proteins were determined using a real-time surface plasmon resonance (SPR) based Biacore S200 biosensor. All binding studies were performed in 10 mM HEPES, 150 mM NaCl, 3 mM EDTA, and 0.05% v/v surfactant Tween-20, pH 7.4 (HBS-EP) running buffer at […]. The Biacore CM5 sensor surface was first derivatized by amine coupling with a monoclonal mouse anti-human Fc antibody (REGN2567) followed by a step to capture anti-TfR monoclonal antibodies in CHO conditioned media. […] The dissociation of TfR bound to anti-TfR monoclonal antibodies was monitored for 3 minutes in HBS-EP running buffer. At the end of each cycle, the anti-TfR monoclonal antibodies capture surface was regenerated using a 12-sec injection of 20 mM H₃PO₄. The association rate (ka) and dissociation rate (kd) were determined by fitting the real-time binding sensorgrams to a 1:1 binding model with mass transport limitation using Scrubber 2.0 c software. The dissociation equilibrium constant (KD) and dissociative half-life (t½) were calculated from the kinetic rate constants as: […]
The molecule B1 returned a Kd of 0.0656 nM.

The target of the next test is T2, hmm.hTfRC (REGN2431), human transferrin receptor extracellular domain with hexahistidine-myc-myc tag (human, UniProt P02786 89-760).
T2 construct: Monomeric recombinant protein, 79210 g/mol; also called hTFR-mmh; His-myc-myc-hTFRC ecto
T2 sequence (P02786 other isoform, or with tags, fused parts or gaps): as above
Kind of test: SPR (Biacore), mAb captured on anti-human Fc, 100 nM hTFR-mmh, 25 C. As for the experimental part: as §1, §2
(In general: Surface plasmon resonance follows binding to a sensor surface in real time, without labels.)
In the case of B2, the “100 nM Ag Bound (RU)” value was 1150 RU, the Kd turned out to be 0.67 nM, the koff was determined as 0.000116 s⁻¹ and the kon is 173000 M⁻¹ s⁻¹. The t½ was 1.66 h.

B3: the “100 nM Ag Bound (RU)” value worked out at 1100 RU, the Kd was found to be 1.18 nM, the koff is 0.000199 s⁻¹ and the on-rate (kon) was determined as 168000 M⁻¹ s⁻¹. Also, the t½ worked out at 0.965 h.

For B4, the “100 nM Ag Bound (RU)” value amounted to 11 RU, binding was characterised by a dissociation constant (Kd) of 7 nM, the koff stood at 0.00439 s⁻¹ and the kon is 600000 M⁻¹ s⁻¹. This molecule registered a t½ of 0.0433 h.

Take B5: the “100 nM Ag Bound (RU)” value amounted to 1280 RU, the Kd worked out at 0.226 nM, the koff was found to be 4.26e-05 s⁻¹ and the on-rate constant (kon) was 190000 M⁻¹ s⁻¹. The t½ came to 4.52 h.

Turning to B6, the “100 nM Ag Bound (RU)” value was determined as 11 RU, binding was characterised by a dissociation constant (Kd) of 3.02 nM, the koff is 0.00131 s⁻¹ and the kon is 433000 M⁻¹ s⁻¹. Also, the t½ is 0.147 h.

For B7, the “100 nM Ag Bound (RU)” value was 1100 RU, binding was put at a Kd of 0.97 nM, the koff was found to be 0.000186 s⁻¹ and the kon was 192000 M⁻¹ s⁻¹. Moreover, the t½ was 1.04 h.

Regarding B8, the “100 nM Ag Bound (RU)” value came to 680 RU, the Kd was found to be 2.22 nM, the dissociation rate constant (koff) was determined as 0.000256 s⁻¹ and the kon came out at 115000 M⁻¹ s⁻¹. The same molecule returned a t½ of 0.752 h.

As to B9, the “100 nM Ag Bound (RU)” value came out at 660 RU; the affinity, expressed as Kd, was 0.448 nM; the koff was 5.33e-05 s⁻¹; the kon was determined as 118000 M⁻¹ s⁻¹. Besides, the t½ was determined as 3.62 h.

The target of another test is T3, mf TFRC ecto-mmh (REGN2054), monomeric monkey (cyno) Tfrc ectodomain with C-terminal myc-myc-hexahistidine tag (monkey (cyno), Macaca fascicularis, UniProt H9EXL1 89-760).
T3 construct: range 89-760; also called mfTfR-mmh; mfTFR-mmh
T3 sequence (chain, as listed by the source): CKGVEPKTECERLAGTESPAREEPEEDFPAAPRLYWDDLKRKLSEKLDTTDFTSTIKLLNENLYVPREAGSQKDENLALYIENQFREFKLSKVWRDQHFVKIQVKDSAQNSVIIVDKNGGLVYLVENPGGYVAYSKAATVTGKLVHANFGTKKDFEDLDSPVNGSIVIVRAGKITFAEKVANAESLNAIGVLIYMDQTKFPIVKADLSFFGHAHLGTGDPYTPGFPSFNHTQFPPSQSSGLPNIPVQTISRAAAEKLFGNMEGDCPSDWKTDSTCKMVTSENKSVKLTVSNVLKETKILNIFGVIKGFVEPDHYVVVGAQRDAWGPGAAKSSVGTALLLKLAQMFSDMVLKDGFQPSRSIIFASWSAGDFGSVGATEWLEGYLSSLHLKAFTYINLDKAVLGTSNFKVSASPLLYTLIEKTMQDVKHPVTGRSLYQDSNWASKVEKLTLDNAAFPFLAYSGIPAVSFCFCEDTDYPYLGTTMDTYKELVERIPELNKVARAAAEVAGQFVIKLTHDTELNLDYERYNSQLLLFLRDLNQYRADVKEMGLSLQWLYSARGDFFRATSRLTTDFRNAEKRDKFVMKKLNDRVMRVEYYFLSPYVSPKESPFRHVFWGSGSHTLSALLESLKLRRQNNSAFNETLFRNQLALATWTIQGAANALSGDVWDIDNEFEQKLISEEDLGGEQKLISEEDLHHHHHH
The test can be described thus: SPR (Biacore), mAb from CHO supernatant captured on anti-human Fc, 100 nM mfTfR-mmh injected, 25 C. As for the experimental part: as §1, §2
Regarding B2, the binding result is “no binding (tested: 100 nM)”.

For B3, the binding result was “no binding (tested: 100 nM)”.

In the case of B4, the binding result is “no binding (tested: 100 nM)”.

As for B5, the binding result is “no binding (tested: 100 nM)”.

In the case of B6, the binding result is “no binding (tested: 100 nM)”.

With B7, the binding result is on record as “no binding (tested: 100 nM)”.

B8: the binding result was “no binding (tested: 100 nM)”.

For the molecule B9, the binding result is “no binding (tested: 100 nM)”.

The target of a further test is T3, mf TFRC ecto-mmh (REGN2054), monomeric …. The test can be described thus: SPR (Biacore), mAb captured on anti-human Fc, 100 nM mfTfR-mmh, 25 C. As for the experimental part:
as §1, §2
With B2, the “100 nM Ag Bound (RU)” value is 4 RU.

On to B3, for which the “100 nM Ag Bound (RU)” value came to 13 RU.

With B4, the “100 nM Ag Bound (RU)” value stood at 5 RU.

On to B5, for which the “100 nM Ag Bound (RU)” value came to 3 RU.

Consider B6, for which the “100 nM Ag Bound (RU)” value came to 1 RU.

Consider B7, for which the “100 nM Ag Bound (RU)” value came to 8 RU.

Take B8: the “100 nM Ag Bound (RU)” value worked out at 9 RU.

As to B9, the “100 nM Ag Bound (RU)” value was 11 RU.

A further test addresses T4, Hmm-hTFRC (REGN2431), monomeric human transferrin receptor ectodomain with N-terminal hexahistidine-myc-myc … (human, UniProt P02786 89-760).
T4 construct: also called hmm.hTfR(C89-F763); His-myc-myc-hTFRC ecto
Kind of test: blocking ELISA, supernatant; Hmm-hTFRC binding to immobilized human holo-Tf. Summed up:
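Plates were coated with anti-hTf goat pAb at 2 µg/mL overnight at 4 °C, then loaded with human holo-Tf at 1 µg/mL for 2 h at room temperature. Bound receptor was detected with TMB and absorbance read at 450 nm.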
For orientation: An ELISA detects its analyte on a solid surface through an enzyme-linked reagent.
For the molecule B10, the “% Blocking” value was 40%.

As for B11, the “% Blocking” value is 0%.

As to B12, the “% Blocking” value worked out at 16%.

For orientation: Kd means the constant that tells how readily two partners part at equilibrium. In general, koff refers to the first-order rate constant of dissociation. In general, kon refers to a measure of how fast the partners come together. The term t½ denotes the time needed for the level to fall by half in the phase considered.
